In publication PMC9653380:

Assays:
[1] = target: variant S-trimer (prefusion-stabilized SARS-CoV-2 spike trimer, S-6P backbone, with K417N, E484K, N501Y and D614G) (SARS-CoV-2 | bacteriophage T4); assay: SEC
[2] = target: Fc-tagged human ACE2 (human) (UniProt Q9BYF1); assay: BLI

## variant S-trimer (prefusion-stabilized SARS-CoV-2 spike trimer, S-6P backbone, with K417N, E484K, N501Y and D614G)
[1]
  stoichiometry N: 3
[2]
  Kd: 9.14 nM
